Measured values from US20070111265A1 (published 2007).

T1: human MR LBD (residues 727-984) containing a C808S mutation, 6xHis-GST fusion protein (;human, UniProt P08235 727-984)
T1 chain: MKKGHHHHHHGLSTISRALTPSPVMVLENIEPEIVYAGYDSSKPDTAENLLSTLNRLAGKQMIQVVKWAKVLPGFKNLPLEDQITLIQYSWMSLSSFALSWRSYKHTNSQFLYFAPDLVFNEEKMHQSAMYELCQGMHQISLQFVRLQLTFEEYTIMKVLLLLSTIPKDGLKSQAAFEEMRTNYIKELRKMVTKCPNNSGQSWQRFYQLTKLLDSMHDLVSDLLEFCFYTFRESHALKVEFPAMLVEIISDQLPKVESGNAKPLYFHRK


Columns and labels:
[1] = target: T1, human MR LBD (residues 727-984) …; test: AlphaScreen peptide competition; corticosterone
[2] = target: T1, human MR LBD (residues 727-984) …; test: AlphaScreen competition; corticosterone

Row | IC50 [1] [nM] | IC50 [2] [nM] | Binder
1 | 1100 |  | RRPCSELLKYLTTND [unlabeled PGC1α-2 peptide]
2 | 900 |  | AEEPSLLKKLLLAPA [unlabeled PGC1α-1 peptide]
3 |  | 40 | PGC1α-(1+2), human PGC1α fragment (residues 1-220) containing both LXXLL motifs, 6xHis-GST fusion protein (other) MAWDMCNQDSESVWSDIECAALVGEDQPLCPDLPELDLSELDVNDLDTDSFLGGLKWCSDQSEIISNQYNNEPSNIFEKIDEENEANLLAVLTETLDSLPVDEDGLPSFDALTDGDVTTDNEASPSSMPDGTPPPQEAEEPSLLKKLLLAPANTQLSYNECSGLSTQNHANHNHRIRTNPAIVKTENSWSNKAKSICQQQKPQRRPCSELLKYLTTNDDP
